Experiments:
[1] = target: T1, porcine CD163 with deletion of SRCR domain 5 on porcine alveolar macrophages (porcine, UniProt Q2VL90 47-1115); test: flow cytometry, PAM CD163-d5
T1 construct: also called PAM CD163-d5; pPAMΔ5 domain
T1 sequence: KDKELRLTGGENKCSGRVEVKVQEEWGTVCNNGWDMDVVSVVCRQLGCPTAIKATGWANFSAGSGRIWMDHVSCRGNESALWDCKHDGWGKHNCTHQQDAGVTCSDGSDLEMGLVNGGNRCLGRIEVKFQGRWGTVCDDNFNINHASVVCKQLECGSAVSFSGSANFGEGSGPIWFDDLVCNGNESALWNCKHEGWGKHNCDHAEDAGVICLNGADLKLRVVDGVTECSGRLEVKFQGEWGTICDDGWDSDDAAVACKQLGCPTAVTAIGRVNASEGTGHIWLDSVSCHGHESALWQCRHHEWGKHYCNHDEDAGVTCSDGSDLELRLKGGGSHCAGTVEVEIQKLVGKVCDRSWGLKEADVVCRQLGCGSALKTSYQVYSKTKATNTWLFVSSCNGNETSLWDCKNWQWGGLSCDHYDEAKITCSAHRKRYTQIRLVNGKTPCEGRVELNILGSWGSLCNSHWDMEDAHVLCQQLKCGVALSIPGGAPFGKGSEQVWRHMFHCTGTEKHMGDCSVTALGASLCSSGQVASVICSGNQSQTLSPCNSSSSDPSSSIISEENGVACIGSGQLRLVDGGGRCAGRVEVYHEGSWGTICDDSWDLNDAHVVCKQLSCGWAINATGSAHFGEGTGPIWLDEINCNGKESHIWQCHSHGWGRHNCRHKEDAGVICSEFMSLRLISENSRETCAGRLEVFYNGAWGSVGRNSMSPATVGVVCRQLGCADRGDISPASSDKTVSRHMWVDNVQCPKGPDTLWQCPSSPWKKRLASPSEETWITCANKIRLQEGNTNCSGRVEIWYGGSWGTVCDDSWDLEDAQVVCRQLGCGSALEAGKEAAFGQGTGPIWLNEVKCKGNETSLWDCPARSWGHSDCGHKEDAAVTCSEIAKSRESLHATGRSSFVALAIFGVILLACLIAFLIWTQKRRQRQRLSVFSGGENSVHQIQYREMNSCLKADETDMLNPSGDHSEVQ
Experimental: (§1) Periplasmic Extract (P.E) from the selected clones were incubated with anti-c-myc antibody (Roche; Cat. nr. 11667203001), specific to the c-myc tag present in the soluble VHH, for 30 minutes with agitation at room temperature (RT). The mix (P.E + anti-c-myc antibody) was added to the pPAM or pPAMΔ5 domain (cells with deletion of SRCR domain 5) and incubated for 60 min at 4° C. with gentle shaking.
(§2) Cells were washed 3x with 150 µl/well of FACS Buffer and incubated with 50 µl/well of the secondary antibody GAM-APC for 30 min at 4° C. and protected from the light, with shaking.

[2] = target: control human IgG (human); test: ELISA, periplasmic extract on control IgG
[3] = target: T2, native membrane bound porcine CD163 on primary porcine alveolar macrophages (porcine, UniProt Q2VL90 47-1115); test: flow cytometry, PAM CD163-WT, RT
T2 construct: also called PAM CD163-WT; pPAM
T2 sequence: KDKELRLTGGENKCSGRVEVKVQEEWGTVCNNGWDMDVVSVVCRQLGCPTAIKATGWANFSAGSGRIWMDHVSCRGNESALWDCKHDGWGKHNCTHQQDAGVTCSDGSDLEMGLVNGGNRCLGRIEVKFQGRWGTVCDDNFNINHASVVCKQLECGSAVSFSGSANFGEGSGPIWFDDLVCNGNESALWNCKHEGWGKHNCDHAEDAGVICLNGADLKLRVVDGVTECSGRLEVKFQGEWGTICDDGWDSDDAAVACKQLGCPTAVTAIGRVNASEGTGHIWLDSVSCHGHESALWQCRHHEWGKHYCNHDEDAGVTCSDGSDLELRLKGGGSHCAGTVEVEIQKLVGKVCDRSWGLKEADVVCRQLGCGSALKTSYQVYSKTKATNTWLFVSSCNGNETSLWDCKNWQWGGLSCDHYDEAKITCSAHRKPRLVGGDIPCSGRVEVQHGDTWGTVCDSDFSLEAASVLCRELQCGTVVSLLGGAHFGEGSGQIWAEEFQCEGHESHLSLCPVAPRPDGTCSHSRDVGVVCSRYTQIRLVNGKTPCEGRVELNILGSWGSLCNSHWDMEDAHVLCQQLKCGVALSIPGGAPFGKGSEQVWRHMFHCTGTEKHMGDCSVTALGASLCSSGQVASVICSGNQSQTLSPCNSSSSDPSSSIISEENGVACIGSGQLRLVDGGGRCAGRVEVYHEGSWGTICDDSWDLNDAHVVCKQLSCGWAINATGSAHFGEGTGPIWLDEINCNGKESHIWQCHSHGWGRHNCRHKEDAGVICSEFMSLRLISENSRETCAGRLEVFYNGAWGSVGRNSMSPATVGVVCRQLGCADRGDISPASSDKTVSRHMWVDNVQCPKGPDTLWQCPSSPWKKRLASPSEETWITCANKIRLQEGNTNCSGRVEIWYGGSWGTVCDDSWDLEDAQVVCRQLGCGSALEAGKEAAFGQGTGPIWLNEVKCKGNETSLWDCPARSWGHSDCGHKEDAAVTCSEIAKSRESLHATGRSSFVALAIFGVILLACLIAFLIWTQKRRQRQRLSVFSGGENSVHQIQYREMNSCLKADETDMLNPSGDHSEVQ

[4] = target: T1, porcine CD163 with deletion of SRCR …; test: flow cytometry on PAM with deletion of SRCR5
Experimental: as §1, §2

B1: VHH 015 (2G01) (VHH)
VHH: QVQLVESGGGLVQAGDTLRLSCTASGRTFSSYSMGWFRQAPGKEREFVAAITWNGYITNYADSVKGRFTISRDNTKNTVFLQMNSLKPEETAVYYCAATTFSTTSPISRTYNYWGPGTQVTVSS
notes: Llama single domain antibody; also called 150(#15); VHCDR3 150(#15); not shown: tags: c-myc tag in periplasmic extract (ELISA, FACS); FLAG and His tags in purified VHH (SPR, infection assays)
[1]
  % Binding: 1.6%
  MFI: 1130 MFI
[2]
  O.D. 450: 0.058 O.D. 450
[3]
  % Binding: 20.4%
  MFI: 1660 MFI
[4]
  binding result: no binding

B2: VHH 002 (1B04) (VHH)
VHH: QVQLVESGGGLVQAGGSLRLSCAASGLTFVTYSMGWFRQAPGKEREFVAAHRWSGSAYYAEHADSVEGRFTISRDYAKNMLYLQMNSLKHEDTAVYYCAAGVGSAAQYRYWGRGTQVTVSS
notes: Llama single domain antibody; also called 76(#2); VHCDR3 76(#2); not shown: tags: c-myc tag in periplasmic extract (ELISA, FACS); FLAG and His tags in purified VHH (SPR, infection assays)
[1]
  % Binding: 1.74%
  MFI: 1260 MFI
[2]
  O.D. 450: 0.057 O.D. 450
[3]
  % Binding: 1.02%
  MFI: 900 MFI
[4]
  binding result: no binding

B3: VHH 008 (1H01) (VHH)
VHH: QVQLVESGGGLVQAGGSLRLSCAASGRTFGTYSMGWFRQAPGKEREFVAAHRWSGSAYYAEHADSVEGRFTISRDYAKNMLYLQMNSLKHEDTAVYYCAAGVGSEAQYRYWGRGTQVTVSS
notes: Llama single domain antibody; also called 78(#8); VHCDR3 78(#8); not shown: tags: c-myc tag in periplasmic extract (ELISA, FACS); FLAG and His tags in purified VHH (SPR, infection assays)
[1]
  % Binding: 2.7%
  MFI: 1460 MFI
[2]
  O.D. 450: 0.06 O.D. 450
[3]
  % Binding: 0.87%
  MFI: 963 MFI
[4]
  binding result: no binding

B4: VHH 016 (2H11) (VHH)
VHH: EVQLVESGGGLVQAGGSLRLSCAASGRTFAPGSMGWFRQAPGKEREFVAAHRWSGSAYYADYADSVEGRFTISRDYAKNMVYLQMNSLKPGDTAVYYCAAGVGSAAQYTYWGRGTQVTVSS
notes: Llama single domain antibody; also called 77(#16); VHCDR3 77(#16); not shown: tags: c-myc tag in periplasmic extract (ELISA, FACS); FLAG and His tags in purified VHH (SPR, infection assays)
[1]
  % Binding: 1.66%
  MFI: 1360 MFI
[2]
  O.D. 450: 0.06 O.D. 450
[3]
  % Binding: 1.59%
  MFI: 927 MFI
[4]
  binding result: no binding

B5: VHH 018 (3E01) (VHH)
VHH: QVQLQESGGGLVQVGGSLRLSCVASGRAPSRYVMGWFRQAPGQEREFVAGIAWSGRAPYADSVKGRSTISRDNAKNTVYLQMNSLKPEDTGVYYCAGGEGAIRWTTLDAYDYWGQGTQVTVSS
notes: Llama single domain antibody; also called 49(#18); VHCDR3 49(#18); not shown: tags: c-myc tag in periplasmic extract (ELISA, FACS); FLAG and His tags in purified VHH (SPR, infection assays)
[1]
  % Binding: 1.96%
  MFI: 1400 MFI
[2]
  O.D. 450: 0.057 O.D. 450
[3]
  % Binding: 1.74%
  MFI: 903 MFI
[4]
  binding result: no binding

B6: VHH 019 (3E11) (VHH)
VHH: QVQLQESGGGLVQVGSSLRLSCVTSGRTPSRYVMGWFRQAPGQEREFVAAISWSGRAPYADSVKGRFTISRDNAKNTVYLQMNSLKPEDTGVYYCAGGEGAIKWTTLDAYDYWGQGTQVTVSS
notes: Llama single domain antibody; also called 47(#19); VHCDR3 47(#19); not shown: tags: c-myc tag in periplasmic extract (ELISA, FACS); FLAG and His tags in purified VHH (SPR, infection assays)
[1]
  % Binding: 1.83%
  MFI: 1530 MFI
[2]
  O.D. 450: 0.054 O.D. 450
[3]
  % Binding: 59.5%
  MFI: 3940 MFI
[4]
  binding result: no binding

B7: VHH 020 (3H11) (VHH)
VHH: QVQLQESGGGLVQVGGSLRLSCVASGRTPSRYVMGWFRQAPGQEREFVAGIAWSGRAPYADSVKGRFVISRDSAKNTVYLQMNSLKSEDTGVYYCAGGEGAILWTTPGAYNYWGQGTQVTVSS
notes: Llama single domain antibody; also called 48(#20); VHCDR3 48(#20); not shown: tags: c-myc tag in periplasmic extract (ELISA, FACS); FLAG and His tags in purified VHH (SPR, infection assays)
[1]
  % Binding: 1.98%
  MFI: 1330 MFI
[2]
  O.D. 450: 0.056 O.D. 450
[3]
  % Binding: 81.5%
  MFI: 9120 MFI
[4]
  binding result: no binding

B8: VHH 023 (4E10) (VHH)
VHH: QVQLVESGGGLVQAGGSLRLSCVASSRTSSTYAMGWFRQGPGKERDFVAIISFGGTFYADSVKGRFTISRDNAKNTVYLQMNSLKPEDTAVYYCAAGRTLSKRADSYASWGQGTQVTVSS
notes: Llama single domain antibody; also called 70(#23); VHCDR3 70(#23); not shown: tags: c-myc tag in periplasmic extract (ELISA, FACS); FLAG and His tags in purified VHH (SPR, infection assays)
[1]
  % Binding: 1.53%
  MFI: 1260 MFI
[2]
  O.D. 450: 0.054 O.D. 450
[3]
  % Binding: 0.56%
  MFI: 843 MFI
[4]
  binding result: no binding

B9: VHH 001 (1B02) (VHH)
VHH: EVQLVESGGGLVQAGGSLSLSCAASGGTLAMYAMSWFRQAPGKDRKFVAAINTSGRYSRYADSVKGRFTISRDNAKNTATLQMNSLEPEDTAVYYCAATDKGNWALAMSYDYWGQGTQVTVSS
notes: Llama single domain antibody; also called 144(#1); VHCDR3 144(#1); not shown: tags: c-myc tag in periplasmic extract (ELISA, FACS); FLAG and His tags in purified VHH (SPR, infection assays)
[1]
  % Binding: 2.15%
  MFI: 1430 MFI
[2]
  O.D. 450: 0.059 O.D. 450
[3]
  % Binding: 0.69%
  MFI: 722 MFI
[4]
  binding result: no binding

B10: VHH 011 (2B06) (VHH)
VHH: EVQLVESGGGLVQAGGSLRLSCAASGRTLSVYGTGWFRQAPGKEREFVAGISGTTGSTLYADSVKGRFTISRDNAKNTVYLQMNSLKSEDTALYYCAAGGRVYITTSSWAYWGQGTQVTVSS
notes: Llama single domain antibody; also called 57(#11); VHCDR3 57(#11); not shown: tags: c-myc tag in periplasmic extract (ELISA, FACS); FLAG and His tags in purified VHH (SPR, infection assays)
[1]
  % Binding: 1.91%
  MFI: 1610 MFI
[2]
  O.D. 450: 0.059 O.D. 450
[3]
  % Binding: 3.32%
  MFI: 983 MFI
[4]
  binding result: no binding

B11: VHH 012 (2C07) (VHH)
VHH: QLQLVESGGGLVQAGGSLRLSCVASGRTFSRYAMGWFRQAPGKEREFVAAIAWSTGSTYYANSVKGRFAISGDNAKNTVYLQMNSLKPEDTAVYYCAAETRYCSGFGCLDPRTYGSWGQGTQVTVSS
notes: Llama single domain antibody; also called 41(#12); VHCDR3 41(#12); not shown: tags: c-myc tag in periplasmic extract (ELISA, FACS); FLAG and His tags in purified VHH (SPR, infection assays)
[1]
  % Binding: 2.13%
  MFI: 1580 MFI
[2]
  O.D. 450: 0.057 O.D. 450
[3]
  % Binding: 91.5%
  MFI: 17700 MFI
[4]
  binding result: no binding

B12: VHH 017 (3D03) (VHH)
VHH: QLQLVESGGGLVQPGGSLRLSCAASGFTLDDYTIGWFRQAPGKEREGVSCINSITSNTYYADSVKGRFTISRDNAKNTVYLQMNSLTAEDTAIYYCAADSGLFSGSSCLKYRAMRFGSWGQGTQVTVSS
notes: Llama single domain antibody; also called 29(#17); VHCDR3 29(#17); not shown: tags: c-myc tag in periplasmic extract (ELISA, FACS); FLAG and His tags in purified VHH (SPR, infection assays)
[1]
  % Binding: 2.14%
  MFI: 1450 MFI
[2]
  O.D. 450: 0.053 O.D. 450
[3]
  % Binding: 37.2%
  MFI: 2290 MFI
[4]
  binding result: no binding

Reference: US20230203185A1 (ECO ANIMAL HEALTH, published 2023)
